Experiment [1] deals with T1, human TSLP recombinant protein (human, UniProt Q969D9 29-159, biotinylated in the blocking and cell-binding assays (sites not given)). In words: cell-based or functional assay.
Experiment [2] deals with T1, human TSLP recombinant protein. Put plainly: SPR BIAcore T200, antibody captured on Protein A, human TSLP injected. (In general: Surface plasmon resonance follows binding to a sensor surface in real time, without labels.)
Procedure: After each injection cycle, the Protein A chip surface was regenerated with regeneration buffer 10 mM glycine (pH 2.0) at a flow rate of 30 μL/min.
The association rate constant (ka) and dissociation rate constant (kd) and equilibrium dissociation constant KD were analyzed by fitting the resulting data to a Langmuir 1:1 kinetics theoretical model using BIAevaluation software.
In experiment [3] the target is T2, Cynomolgus macaques TSLP recombinant protein (Cynomolgus macaques, UniProt Q969D9 29-159 (human entry), limits assumed, biotinylated in the blocking assays (sites not given)).
T2 construct: also called cyTSLP; biotinylated Cynomolgus macaques TSLP protein
T2 chain: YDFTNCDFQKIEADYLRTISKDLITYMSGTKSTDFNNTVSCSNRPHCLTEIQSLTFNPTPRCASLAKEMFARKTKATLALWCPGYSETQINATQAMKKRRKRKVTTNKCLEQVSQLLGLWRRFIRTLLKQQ
In words: competition ELISA, biotin-cynomolgus TSLP to coated cynomolgus TSLPR-Fc.

For experiment [4], the target named is T1, human TSLP recombinant protein. In words: ELISA on coated human TSLP.
Procedure: (§1) The plate was washed three times with PBS and blocked by adding 200 μL/well of PBS containing 2% skim milk for 1 hour. […] After washing with PBST and PBS three times, respectively, 100 μL of TMB substrate was added to each well for color development at 37° C. for 10 minutes, the reaction was terminated with 50 μL of 2M sulfuric acid solution per well, and the absorbance was read at a wavelength of 450 nm.
Experiment [5] deals with T2, Cynomolgus macaques TSLP recombinant …. Put plainly: ELISA on coated cynomolgus TSLP.
Procedure: as §1
Experiment [6] concerns the target T1, human TSLP recombinant protein. Put plainly: competition ELISA, biotin-human TSLP to coated human TSLPR-Fc. A general note: In an ELISA, binding on a coated surface is turned into a signal by an enzyme label.
Procedure: Human TSLPR recombinant protein was coated onto a 96-well microtiter plate at 1 μg/mL in carbonate buffer overnight at 4° C. The plate was washed three times with PBS and blocked by adding 200 μL/well of PBS containing 2% skim milk for 1 hour. […] The 96-well plate was washed three times with PBS, and 100 μL of the incubated mixture was added to each well and incubated for 1 hour at room temperature. After washing with PBST and PBS three times, respectively, 100 μL of SA-HRP was added to each well and incubated at room temperature for 30 minutes in the dark. After washing with PBST and PBS three times, respectively, 100 μL of TMB substrate was added to well for color development at 37° C. for 10 minutes, the reaction was terminated with 50 μL of 2M sulfuric acid solution per well, and the absorbance was read at a wavelength of 450 nm.
The target is the same in experiment [7]. Put plainly: cell-based or functional assay. This is another data set of the same source.
The target is the same in experiment [8]. Put plainly: ELISA, human TSLP coated at 1 ug/mL, anti-human IgG Fc-HRP, A450.
Procedure: as §1
Experiment [9] has as its target T2, Cynomolgus macaques TSLP recombinant …. Put plainly: ELISA on coated cynomolgus TSLP.
Procedure: as §1

B1: 71G4 chimeric antibody (antibody, V domains shown)
VH: QVQLQQSGAELVMPGASVKMSCKASGYTFTDYWMHWVKQRPGQGLEWIGTIDNSDSDTTYNQKFKGKVTLTVDESSSTAYMQLSSLTSEDSAVYYCARSVDGYLDYWGQGTTLTVSS
VL: EIQMTQSPASLSASVGETVTITCRTSENIYSYLAWYQQKQGKSPQLLVYFAKTLTDGVPSRLSGSGSGTQFSLKINSLQPEDFGSYYCQHHYGTPWTFGGGTKLEIK
A word on the Kd: it is the equilibrium constant for the complex coming apart. For orientation: koff means a measure of how fast the partners let go of each other. A word on the kon: it is a measure of how fast the partners come together. What is called IC50 is the concentration that gives 50% inhibition. The EC50 is the concentration needed to bring the measured effect to its halfway point. Regarding B1, the “Inhibition IC50 of cell proliferation” value in experiment [1] is 12.7 nM. The equilibrium dissociation constant (Kd) in [2] came to 0.01 nM. In experiment [2], the koff stood at 3.16e-05 s⁻¹. Besides, in experiment [2], the kon came to 3.15e+06 M⁻¹ s⁻¹. Besides, the IC50 was 0.56 nM in experiment [3] and 1.52 nM in [6]. Further, the values for the EC50 in [4] and in [5] were 0.32 nM and 0.6 nM, respectively. The “Inhibition IC50 of STAT5 reporter gene” value in experiment [7] was determined as 1.67 nM.

B2: 80D12 chimeric antibody (antibody, V domains shown)
VH: QVQLKQSGPQLVRPGASVKISCKASGYSFTSYWMHWVKQRPGQGLEWIGMIDPSDSETTLNQKFKDKATLTVDKSSTTAYMQLSSPTSEDSAVYYCARSLDGYYDYWGQGTTLTVSS
VL: DVQMIQSPASLSASVGETVTITCRTSENIYSYLAWYQQKQGKSPQLLVYFAKTLTDGVPSRFSGSGSGTQFSLKINSLQPEDFGSYYCQHHYGTPWTFGGGTKLEIK
As for B2, the “Inhibition IC50 of cell proliferation” value in experiment [1] was 44.7 nM. Also, in experiment [2], the Kd came to 0.00596 nM. For the same molecule, the koff in [2] worked out at 2.84e-05 s⁻¹. The association rate constant (kon) in experiment [2] was 4.77e+06 M⁻¹ s⁻¹. Besides, the figures for the IC50 in [3] and in experiment [6] were 0.63 nM and 2.44 nM, respectively. In addition, the concentration for a half-maximal effect (EC50) in experiment [4] stood at 0.21 nM; in experiment [5], 0.35 nM. The “Inhibition IC50 of STAT5 reporter gene” value in experiment [7] is 3.84 nM.

B3: 39G5-H8 chimeric antibody (antibody, V domains shown)
VH: QVQLLQSGPQLVRPGASVKISCKASGYSFISYWIHWVKQRPGQGLEWIGIIDPSDSDTSLNQKFKDKATLTVDKSSTTAYIQLSSPTSEDSAVYYCARSLDGYYDYWGQGTTLTVSS
VL: DIQMTQSPASLSASVGETVTITCRASENIYSYLAWYQQKQGKSPQLLVYNARTLPEGVPSRFSGSGSGTQFSLKINSLQPEDFGIYYCQHHYTTPWTFGGGTKLEIK
On to B3, for which the “Inhibition IC50 of cell proliferation” value in experiment [1] was 39.1 nM. In addition, in experiment [2], the Kd amounted to 0.0095 nM, the koff was determined as 4.6e-05 s⁻¹ and the kon was 4.84e+06 M⁻¹ s⁻¹. Besides, the half-inhibitory concentration (IC50) in experiment [3] turned out to be 1.74 nM. Moreover, the concentration for a half-maximal effect (EC50) in [4] was 0.15 nM. The concentration for a half-maximal effect (EC50) in [5] worked out at 0.54 nM. Besides, the IC50 in experiment [6] is 3.42 nM. Also, in experiment [7], the “Inhibition IC50 of STAT5 reporter gene” value was determined as 3.33 nM.

B4: Ab12 (antibody, V domains shown)
VH: QVQLVQSGAEVKKPGSSVKVSCKASGYTFTDYWMHWVRQAPGQGLEWMGTIDNSDSDTSLNQKFQGRVTITADESSSTAYMELSSLRSEDTAVYYCARSLDGYYDYWGQGTLVTVSS
VL: DIQMTQSPSSLSASVGDRVTITCRASENIYSYLAWYQQKPGKAPKLLIYNARTLPEGVPSRFSGSGSGTDFTLTISSLQPEDFATYYCQHHYTTPWTFGQGTKVEIK
notes: Humanized; also called h39G5VHv12/h39G5VKv1
As to B4, the binding result in [8] and in [9] was “binds” throughout.

B5: Ab14 (antibody, V domains shown)
VH: EVQLVQSGAEVKKPGESLKISCKASGYTFTDYWMHWVRQMPGKGLEWMGTIDNSDSDTSLNQSFQGHVTISADKSISTAYLQWSSLKASDTAMYYCARSLDGYYDYWGQGTLVTVSS
VL: DIQMTQSPSSLSASVGDRVTITCRASENIYSYLAWYQQKPGKAPKLLIYNARTLPEGVPSRFSGSGSGTDFTLTISSLQPEDFATYYCQHHYTTPWTFGQGTKVEIK
notes: Humanized; also called h39G5VHv14/h39G5VKv1
On to B5, for which the binding result is “binds” in experiment [8] and “no binding” in experiment [9].

(Values after patent publication US20230029835A1 (KEYMED BIOSCIENCES, published 2023).)
